Substrate: NC(=O)C1=CN([C@@H]2O[C@H](COP(=O)(O)OP(=O)(O)OC[C@H]3O[C@@H](n4cnc5c(N)ncnc54)[C@H](OP(=O)(O)O)[C@@H]3O)[C@@H](O)[C@H]2O)C=CC1
Experiment: purified protein
Conditions: reduction of cinnamaldehyde; varied: cofactor

B1: NtDBR (Nicotiana tabacum) (protein)
chain: MAEEVSNKQVILKNYVTGYPKESDMEIKNVTIKLKVPEGSNDVVVKNLYLSCDPYMRSRMRKIEGSYVESFAPGSPITGYGVAKVLESGDPKFQKGDLVWGMTGWEEYSIITPTQTLFKIHDKDVPLSYYTGILGMPGMTAYAGFHEVCSPKKGETVFVSAASGAVGQLVGQFAKMLGCYVVGSAGSKEKVDLLKSKFGFDEAFNYKEEQDLSAALKRYFPDGIDIYFENVGGKMLDAVLVNMKLYGRIAVCGMISQYNLEQTEGVHNLFCLITKRIRMEGFLVFDYYHLYPKYLEMVIPQIKAGKVVYVEDVAHGLESAPTALVGLFSGRNIGKQVVMVSRE
Q: Which results are given for B1?
A: Km: 91 µM; kcat: 40 min^–1

From paper PMC4731831, “Better than Nature: Nicotinamide Biomimetics That Outperform Natural Coenzymes” (Journal of the American Chemical Society, 2016)
